# “Also recorded” adds a separate entry of the source. Residues, ends and D or L forms follow the SMILES beside them. No end group written: not given here.
# Assays:
# [1] = target: T1, BCL6 BTB domain (Homo sapiens, UniProt P41182, C67R/C84N/C8Q); assay: Electrophoretic mobility shift assay (EMSA) for complex formation of BCoR fragments with BCL6 BTB domain; type: binding; parameters: which is BCL6 residues 5-129, with the point mutations C8Q, C67R and C84N; made in house; conditions: non-denaturing PAGE
# Procedure: Further mapping of the minimal BCoR fragment was done with a version of an electrophoretic mobility shift assay (EMSA). Purified BCL6 BTB domain was mixed with a BCoR fragment (either as a fusion protein or as a purified peptide) and incubated at room temperature in a non-denaturing buffer. The mixture was analyzed by non-denaturing polyacrylamide gel electrophoresis (PAGE) and protein bands were visualized with either Coomassie blue staining or silver staining. A change in the position of the BCL6 BTB domain band was indicative of complex formation. […] These two sequences correspond to a S507A / W509A / V511A BCoR triple mutation, and to a S507W / W509S BCoR double mutation, respectively.
# [2] = target: T2, BCL6 BTB domain H116A mutant (Homo sapiens, UniProt P41182, C67R/C84N/C8Q/H116A); assay: Co-purification assay with mutant BCL6 BTB domain H116A; type: binding
# T2 construct: which is BCL6 residues 5-129, with the point mutations C8Q, C67R and C84N; thioredoxin-6His-TEV site-BirA motif-thrombin site fusion (N, cleaved yes); made in house; host or cells: E. coli
# Procedure: (§1) In vitro binding assays. Co-purification: Equimolar amounts of His-tagged thioredoxin-corepressor fusion protein and BCL6 BTB or PLZF BTB domain were combined, incubated for at least two hours, and loaded onto a Ni-NTA spin column (Qiagen). The column was washed three times with 600 μl of wash buffer (200 mM NaCl, 20 mM Tris-HCl pH 8.0, 10 mM imidazole), and bound protein was released with 400 μl of elution buffer (200 mM NaCl, 20 mM Tris-HCl pH 8.0, 300 mM imidazole). Samples were analyzed on 10-20% SDS-PAGE gels and stained with Coomassie blue.
# [3] = target: T3, BCL6 BTB domain N21K mutant (Homo sapiens, UniProt P41182, C67R/C84N/C8Q/N21K); assay: Co-purification assay with mutant BCL6 BTB domain N21K; type: binding
# T3 construct: which is BCL6 residues 5-129, with the point mutations C8Q, C67R and C84N; thioredoxin-6His-TEV site-BirA motif-thrombin site fusion (N, cleaved yes); made in house; host or cells: E. coli
# Procedure: as §1
# [4] = target: T1, BCL6 BTB domain; assay: biochemical
# Procedure: Protein Expression and Purification. […] BCL6 BTB domain protein was produced by thrombin digestion of the thioredoxin fusion proteins, and repurified by size-exclusion chromatography in 500 mM NaC1, 20 mM Tris-HCl, 10% glycerol, 1.0 mM TCEP, pH 8.5. Corepressor fusion proteins were biotinylated with BirA and digested with TEV protease to yield peptides for SPR analysis with a biotinylated lysine eight amino acids N-terminal to the first corepressor residue, or digested with thrombin to produce peptides with no additional N-terminal residues for co-crystallization or ITC.
# ITC: The binding of SMRT^1414-1430 to BTB domain protein was analyzed on a Microcal VP-ITC instrument at 25° C. All components were in 150 mM NaCl, 20 mM Hepes pH 7.7, 1 mM TCEP. The experiment consisted of thirty 6.93 μL injections of a solution containing 480 μM SMRT^1414-1430 into a sample cell containing 1.8 mL of either BCL6 BTB (23.0 μM) or PLZF BTB (38.5 μM). To correct for dilution and mixing effects, a series of control injections was carried out, in which the heat of dilution was measured in blank titrations by injecting the peptide into the buffer.
# [5] = target: T1, BCL6 BTB domain; assay: Surface plasmon resonance (SPR) binding of BCL6 BTB domain to immobilized corepressor peptides; parameters: which is BCL6 residues 5-129, with the point mutations C8Q, C67R and C84N; made in house; conditions: for relative binding affinity by SPR: relative to the longer SMRT peptide(s)
# Procedure: Protein Expression and Purification. […] BCL6 BTB domain protein was produced by thrombin digestion of the thioredoxin fusion proteins, and repurified by size-exclusion chromatography in 500 mM NaC1, 20 mM Tris-HCl, 10% glycerol, 1.0 mM TCEP, pH 8.5.
# SPR: Biotinylated corepressor peptides were coupled to streptavidin-coated sensor chips to a density of 800 response units (Biacore 2000). BCL6 or PLZF BTB protein was serially diluted in running buffer (10 mM Hepes, pH 7.4, 150 mM NaCl, 3 mM EDTA, 0.005% v/v surfactant P20) and injected at a flow rate of 5 μL/min.
# [6] = target: T1, BCL6 BTB domain; assay: Co-purification assay (Ni-NTA) of His-tagged corepressor fusion proteins with BTB domain; type: binding; parameters: which is BCL6 residues 5-129, with the point mutations C8Q, C67R and C84N; made in house
# Procedure: as §1
# The initial BCL6 interacting fragment identified in the yeast two-hybrid screen consisted of residues 112-753 of BCoR (Huynh et al., 2000).
molecule,measurement,setting,value
"CAIYRSEIISTAPSSWVVPGPSPNE (not fully specified) [BCoR 494-518, thioredoxin-6his fusion protein with BCoR residues 494-518]",complex formation with the BCL6 BTB domain (EMSA band shift),[1],forms a complex; also recorded: complexes were present
RSEIISTAPASAVAPGP [BCoR peptide with S507A / W509A / V511A triple mutation],complex formation with the BCL6 BTB domain (EMSA band shift),[1],did not result in a shift
Trx-(SMRT-BBD): His-tagged thioredoxin fusion protein of the SMRT-BBD (LVATVKEAGRSIHEIPR; also: His-tagged thioredoxin fusion protein),binding to H116A mutant BCL6 BTB domain,[2],significantly reduced affinity
same,binding to N21K mutant BCL6 BTB domain,[3],no binding at all
RSEIISTAPSSWVVPGP [BCoR 498-514],complex formation with the BCL6 BTB domain (EMSA band shift),[1],complexes were present
"CC[C@H](C)[C@H](NC(=O)[C@H](CO)NC(=O)[C@H](CCCNC(=N)N)NC(=O)CNC(=O)[C@H](C)NC(=O)[C@H](CCC(=O)O)NC(=O)[C@H](CCCCN)NC(=O)[C@@H](NC(=O)[C@@H](NC(=O)[C@H](C)NC(=O)[C@@H](NC(=O)[C@@H](N)CC(C)C)C(C)C)[C@@H](C)O)C(C)C)C(=O)N[C@@H](Cc1c[nH]cn1)C(=O)N[C@@H](CCC(=O)O)C(=O)N[C@H](C(=O)N1CCC[C@H]1C(=O)N[C@@H](CCCNC(=N)N)C(=O)O)[C@@H](C)CC [SMRT^1414-1430, lvatvkeagrsiheipr] (H-LVATVKEAGRSIHEIPR-OH)",stoicheometry of the interaction by ITC,[4],1.11 ±0.06 SMRT peptides per BCL6 chain
same,enthalpic contribution ΔH,[4]; ITC,-23.2 ± 1.6 kcal/mol
same,entropic contribution −TΔS,[4]; ITC,16.4±2.3
same,binding to H116A mutant BCL6 BTB domain,[2],does not bind
same,binding to N21K mutant BCL6 BTB domain,[3],does not bind
same,relative binding affinity by SPR,[5],stronger binding
"SMRT^1417-1441: N-terminally truncated SMRT corepressor peptide, residues 1417-1441 (TVKEAGRSIHEIPREELRHTPELPL; not fully specified)",relative binding affinity by SPR,[5],slightly weaker binding
BCoR 506-522: thioredoxin-6his fusion protein with BCoR residues 506-522 (PSSWVVPGPSPNEENNG; also: thioredoxin-6His fusion protein),complex formation with the BCL6 BTB domain (EMSA band shift),[1],do not interact
"CC[C@H](C)[C@H](NC(=O)[C@H](CO)NC(=O)[C@H](CCCNC(=N)N)NC(=O)CNC(=O)[C@H](C)NC(=O)[C@H](CCC(=O)O)NC(=O)[C@H](CCCCN)NC(=O)[C@@H](NC(=O)[C@@H](NC(=O)[C@H](C)NC(=O)[C@@H](NC(=O)[C@@H](N)CC(C)C)C(C)C)[C@@H](C)O)C(C)C)C(=O)N[C@@H](Cc1cnc[nH]1)C(=O)N[C@@H](CCC(=O)O)C(=O)N[C@H](C(=O)N1CCC[C@H]1C(=O)N[C@@H](CCCNC(=N)N)C(=O)O)[C@@H](C)CC [SMRT^1414-1430, lvatvkeagrsiheipr] (H-LVATVKEAGRSIHEIPR-OH)",Kd,[4],11.4 ± 1 µM
"N-CoR^1351-1383: N-CoR corepressor peptide, residues 1351-1383, equivalent to the SMRT fragment (IHEIPRQDILTQESRKTPEVVQSTRPIIEGSIS; UniProt O75376 1351-1383, looked up, fragment)",fold stronger affinity of the BTB domain relative to the longer SMRT peptide,"[5]; SPR, ratio of dissociation constants",2.5 fold
RSEIISTAPWSSVVPGP [BCoR peptide with S507W / W509S double mutation],complex formation with the BCL6 BTB domain (EMSA band shift),[1],did not result in a shift
BCoR 494-510: thioredoxin-6his fusion protein with BCoR residues 494-510 (CAIYRSEIISTAPSSWV; also: thioredoxin-6His fusion protein),complex formation with the BCL6 BTB domain (EMSA band shift),[1],do not interact
BCoR 494-514: thioredoxin-6his fusion protein with BCoR residues 494-514 (CAIYRSEIISTAPSSWVVPGP; also: thioredoxin-6His fusion protein),complex formation with the BCL6 BTB domain (EMSA band shift),[1],complexes were present
BCoR 502-522: thioredoxin-6his fusion protein with BCoR residues 502-522 (ISTAPSSWVVPGPSPNEENNG; also: thioredoxin-6His fusion protein),complex formation with the BCL6 BTB domain (EMSA band shift),[1],complexes were present
"BCoR fragment 317-547: hexahistidine tagged fusion protein containing residues 317 to 547 of BCoR (protein, left off: large carriers, hexahistidine tagged fusion protein containing residues 317 to 547 of BCoR) SAKAVTSGLPGDTALLLPPSPRPSPRVHLPTQPAADTYSEFHKHYARISTSPSVALSKPYMTVSSEFPAARLSNGKYPKAPEGGEGAQPVPGHARKTAVQDRKDGSSPPLLEKQTVTKDVTDKPLDLSSKVVDVDASKADHMKKMAPTVLVHSRAGSGLVLSGSEIPKETLSPPGNGCAIYRSEIISTAPSSWVVPGPSPNEENNGKSMSLKNKALDWAIPQQRSSSCPRM",binding to H116A mutant BCL6 BTB domain,[2],did not bind
same,binding to N21K mutant BCL6 BTB domain,[3],did not bind
same,binding to BCL6 BTB domain in co-purification assay,[6],bound directly
"BCoR 112 to 342: hexahistidine tagged fusion protein containing residues 112 to 342 of BCoR (protein, UniProt Q6W2J9 112-342, looked up, fragment, hexahistidine tag, hexahistidine tagged fusion protein containing residues 112 to 342 of BCoR) LGFSSERNPEMQFKPNTPETVEASAVSGKPPNGFSAIYKTPPGIQKSAVATAEALGLDRPASDKQSPLNINGASYLRLPWVNPYMEGATPAIYPFLDSPNKYSLNMYKALLPQQSYSLAQPLYSPVCTNGERFLYLPPPHYVGPHIPSSLASPMRLSTPSASPAIPPLVHCADKSLPWKMGVSPGNPVDSHAYPHIQNSKQPRVPSAKAVTSGLPGDTALLLPPSPRPSPR",binding to BCL6 BTB domain in co-purification assay,[6],did not
"BCoR 542 to 753: hexahistidine tagged fusion protein containing residues 542 to 753 of BCoR (protein, UniProt Q6W2J9 542-753, looked up, fragment, hexahistidine tag, hexahistidine tagged fusion protein containing residues 542 to 753 of BCoR) SSCPRMGGTDAVITNVSGSVSSAGRPASASPAPNANADGTKTSRSSVETTPSVIQHVGQPPATPAKHSSSTSSKGAKASNPEPSFKANENGLPPSSIFLSPNEAFRSPPIPYPRSYLPYPAPEGIAVSPLSLHGKGPVYPHPVLLPNGSLFPGHLAPKPGLPYGLPTGRPEFVTYQDALGLGMVHPMLIPHTPIEITKEEKPERRSRSHERA",binding to BCL6 BTB domain in co-purification assay,[6],did not

# Reference: patent US8703503B2, “Methods and compositions for inhibition of BCL6 repression” (Albert Einstein School of Medicine of Yeshiva University, priority 2003, dated 2014)
